Numbering of substitutions follows the chain as printed.
B1: m971-HL: CD22 (m971-derived) CAR construct that served as positive control (antibody, V domains shown)
VH: QVQLQQSGPGLVKPSQTLSLTCAISGDSVSSNSAAWNWIRQSPSRGLEWLGRTYYRSKWYNDYAVSVKSRITINPDTSKNQFSLQLNSVTPEDTAVYYCAREVTGDLEDAFDIWGQGTMVTV
VL: DIQMTQSPSSLSASVGDRVTITCRASQTIWSYLNWYQQRPGKAPNLLIYAASSLQSGVPSRFSGRGSGTDFTLTISSLQAEDFATYYCQQSYSIPQTFGQGTKLEIK
B2: hCD22-31: human CD22 CAR (protein)
scFv: QVQLVQSGAEVKKPGASVKVSCKASGYTFTSYDINWVRQATGQGLEWMGWMNPNSGNTGYAQKFQGRVTMTRNTSISTAYMELSSLRSEDTAVYYCARGDSNYWSYYGMDVWGQGTLVTVSSGGGGSGGGGSGGGGSGGGGSQSVLTQPRSVSGSPGQSVTISCTGTSSDVGGYNYVSWYQQHPGEAPKLIIYDADKRPSGISNRFSSGKSGNTASLTISGLQVEDEADYYCCSYAGGSTWVFGGGTKVTVL
B3: hCD22-5: human CD22 CAR (protein)
scFv: EVQLVESGGGLVQPGRSLRLSCAASGFTFDDYAMHWVRQAPGKGLEWVSGISWNSGSIGYADSVKGRFTISRDNAKNSLYLQMNSLRAEDTALYYCAKDKGGGYYDFWSGSDYWGQGTLVTVSSGGGGSGGGGSGGGGSSSELTQDPAVSVALGQTVRITCQGDSLRSYYASWYQQKPGQAPVLVIYGKNNRPSGIPDRFSGSSSGNTASLTITGAQAEDEADYYCNSRDSSGWVFGGGTKLTVL
B4: hCD22-10: human CD22 CAR (protein)
scFv: EVQLQQSGPGLVKPSQTLSLTCAISGDSVLSNSDTWNWIRQSPSRGLEWLGRTYHRSTWYDDYASSVRGRVSINVDTSKNQYSLQLNAVTPEDTGVYYCARDRLQDGNSWSDAFDVWGQGTMVTVSSGGGGSGGGGSGGGGSQSALTQPASVSGSPGQSITISCTGTSSDVGGYNYVSWYQQHPGKAPKLMIYDVSNRPSGVSNRFSGSKSGNTASLTISGLQAEDEADYYCSSYTSSSTLVYVFGTGTKVTVL
B5: hCD22-2: human CD22 CAR (protein)
scFv: EVQLQQSGPGLVKPSQTLSLTCAISGDSVSSNSAAWNWIRQSPSRGLEWLGRTYYRSKWYNDYAVSVKSRITINPDTSKNQFSLQLNSVTPEDTAVYYCARDLGWIAVAGTFDYWGQGTLVTVSSGGGGSGGGGSGGGGSQSALTQPASVSGSPGQSITISCTGTSSDVGGYNYVSWYQQHPGKAPKLMIYDVSKRPSGVSNRFSGSKSGNTASLTISGLQAEDEADYYCSSYTSSSLNHVFGTGTKVTVL
B6: CD22-60: human CD22 scFv SEQ ID NO 135 (protein, listed as Homo sapiens)
scFv: EVQLQQSGPGLVKPSQTLSLTCAISGDSVLSNSDTWNWIRQSPSRGLEWLGRTYHRSTWYDDYASSVRGRVSINVDTSKNQYSLQLNAVTPEDTGVYYCARDRLQDGNSWSDAFDVWGQGTMVTVSSGGGGSGGGGSGSGGSQSALTQPASVSGSPGQSITFSCTGTSSDIGGYNYVSWYQQHPGKAPKLMIYEVSNRPSGVSNRFSGTKSGNTASLTISGLQAEDEADYYCSSYTSSSTLYVFGTGTKLTVLG
B7: CD22-62: human CD22 scFv SEQ ID NO 137 (protein, listed as Homo sapiens)
scFv: B6 scFv with S139G, F162I, I171V, E194D, T209S, L250V
B8: CD22-63: human CD22 scFv SEQ ID NO 138 (protein, listed as Homo sapiens)
scFv: B6 scFv with S139G, F162I, I171V, T209S, V243I, L250V
B9: CD22-61: human CD22 scFv SEQ ID NO 136 (protein, listed as Homo sapiens)
scFv: B6 scFv with E1Q, Q6E, F162I, I171V, T209S, L250V
B10: CD22-57: human CD22 scFv SEQ ID NO 132 (protein, listed as Homo sapiens)
scFv: EVQLQQSGPGLVKPSQTLSLTCAISGDSVSNNNAAWNWIRQSPSRGLEWLGRTYHRSTWYNDYVGSVKSRITINPDTSKNQFSLQLNSVTPEDTAVYYCARETDYGDYGAFDIWGQGTTVTVSSGGGGSGGGGSGGGGSQSALTQPASVSGSPGQSITISCTGSRNDIGAYESVSWYQQHPGNAPKLIIHGVNNRPSGVFDRFSVSQSGNTASLTISGLQAEDEADYYCSSHTTTSTLYVFGTGTKVTVLG
B11: CD22-58: human CD22 scFv SEQ ID NO 133 (protein, listed as Homo sapiens)
scFv: EVQLQQSGPGLVNPSQTLSITCAISGDSVSSNSAAWNWIRQSPSRGLEWLGRTFYRSKWYNDYAVSVKGRITISPDTSKNQFSLQLNSVTPEDTAVYYCAGGDYYYGLDVWGQGTTVTVSSGGGGSGGGGSGGGGSQSALTQPASVSGSPGQSITISCTGSSSDVGGYNSVSWYQQHPGKAPKLMIYEVINRPSGVSHRFSGSKSGNTASLTISGLQAEDEADYYCSSYTSSSTYVFGTGTKVTVLG
B12: CD22-59: human CD22 scFv SEQ ID NO 134 (protein, listed as Homo sapiens)
scFv: EVQLQQSGPGLVKPSQTLSLTCAISGDSVLSNSDTWNWIRQSPSRGLEWLGRTYHRSTWYDDYASSVRGRVSINVDTSKNQYSLQLNAVTPEDTGVYYCARDRLQDGNSWSDAFDVWGQGTMVTVSSGGGGSGGGGSGGGGSQSALTQPASVSGSPGQSITISCTGSSSDIGGFNYVSWYQQHAGEAPKLMIYEVTNRPSGVSDRFSGSKSDNTASLTISGLQAEDEADYYCSSYASGSPLYVFGTGTKVTVLG
B13: CD22-53: human CD22 CAR, scFv SEQ ID NO 131 (protein)
scFv: EVQLQQSGPGLVKPSQTLSLTCAISGDSVSSNSAAWNWIRQSPSRGLEWLGRTYYRSKWYSDYAVSVKSRITINPDTSKNQFSLQLNSVTPEDTAVYYCARDPYDFWSGYPDAFDIWGQGTMVTVSSGGGGSGGGGSGGGGSQSALTQPASVSGSPGQSITISCTGTSSDVGGYNYVSWYQQHPGKAPKVIISEVNNRPSGVSHRFSGSKSGNTASLTISGLQAEDEADYFCSSYTSGRTLYVFGTGSKVTVLG

What follows are molecules tested on Raji, SEM, K562-hCD22, Daudi, and Nalm6 (assay: Primary T-cell tumor target killing assay). Conditions: CD22 expressing luciferase target cell lines.
Format: cell-based, human
From the text: Primary T-cells activated and transduced as described above were mixed with target cell lines stably expressing luciferase at the ratios indicated (FIG. 20A-20F). […] Untransduced T-cells (UTD) lacked the ability to kill target cell lines.

Row | Molecule | target cell killing
1 | B1 | dose-dependent target cell killing
2 | B2 | dose-dependent target cell killing
3 | B3 | dose-dependent target cell killing
4 | B4 | dose-dependent target cell killing
5 | B5 | dose-dependent target cell killing

What follows are molecules tested against recombinant human CD22-Fc (Homo sapiens, UniProt P20273) (assay: Surface expression of CD22 CAR in primary human T-cells (Protein-L, rhCD22-Fc)). Conditions: day 10, flow cytometry.
Format: cell-based
Description: Primary human T-cells were activated with anti-CD3/antiCD28 stimulatory beads on day 0, followed by lentiviral transduction of specified CAR constructs on day 1. Cells were expanded in vitro until day, 10 at which point they were analyzed by flow cytometry for surface expression of CAR. Two different approaches were utilized to determine surface expression of CAR: Protein-L-biotin followed by streptavidin-PE, and recombinant human CD22-Fc followed by anti-Fc-alexafluor 488. […] CD22 CAR m971 served as a positive control for binding both Protein-L and hrCD22-Fc, and Isotype CAR with no specificity (anti-gH) served as a positive control for Protein-L. T cells expressing no CAR were used as a negative control.

Row | Molecule | surface expression of CAR
6 | B2 | positive surface expression
7 | B3 | positive surface expression
8 | B4 | positive surface expression
9 | B5 | positive surface expression

The molecules below were run on CD22 (assay: NFAT assay of CD22 CAR in JNL cells on antigen-coated plates). Conditions: plates coated with CD22-FL-Fc, CD22-D567-Fc, CD22-D67.
Format: cell-based, human
Description: Several CD22 CAR constructs were functionally validated in an NFAT assay. Briefly the experiments were performed as follows. A lentiviral vector (pELPS) carrying a nucleic acid, encoding a CD22 CAR with a CD22-binding scFv domain was introduced by electroporation into a Jurkat T cell line modified to express luciferase under the control of an NFAT response element (JNL). The cells were cultured and allowed to express the CAR construct. The electroporated cells were applied to a plate coated with the target antigen (CD22). Detection of luciferase signal in the coated plate was indicative of binding activity of the CD22 CAR to its antigen, leading to activation of the T cells and expression of luciferase.
The results also indicate that the different scFvs compete with m971 to different extents.
FIG. 72 is a graph showing the activation (in RLU) of several CD22 CAR-expressing JNL cells including CD22-57, CD22-58, CD22-59, CD22-60, CD22-61, CD22-62, and CD22-63, the scFv sequences of which are provided herein. Three different target proteins (CD22-FL-Fc, CD22-D567-Fc, and CD22-D67) were used to coat the tissue culture plates; a negative control (Fc) was also included. A mesothelin binding CAR (Meso-G07) was used as a negative control. CD22-12 and CD22-53 were used as positive controls. […] Domain mapping was performed on CD22 binding domains. Three different forms of antigens were used: CD22 full-length with all 7 external domains, Domain567 (in which domains 1-4 were deleted) and Domain67 (in which domains 1-5 were deleted). While not wishing to be bound by theory, it appears that the binding of various CD22 clones maps to the epitopes illustrated in FIG. 75.
Two scFvs, named CD22-64 and CD22-65, were produced by affinity maturation of hCD22-12. CAR constructs containing these scFvs were tested for activity in an NFAT assay as described above. […] The bars in the figure represent, from left to right, CD22 full length-Fc; CD22 D567-Fc; and an Fc only negative control used for coating of the plates.

Row | Molecule | function in NFAT assay
10 | B6 | functional
11 | B7 | functional
12 | B8 | functional
13 | B9 | functional
14 | B10 | functional
15 | B11 | functional
16 | B12 | functional

Same assay, conditions: with and without m971 scFv competitor

Row | Molecule | antigen binding / activation (RLU) vs m971
17 | B13 | bind the antigen approximately as well as the m971 positive control

What follows are molecules tested on Raji-Luc and Daudi-Luc (assay: IFN-gamma and IL-2 secretion by CD22 CAR primary T cells). Conditions: E:T 10 to 1, 20-hr co-culture.
Format: cell-based, human
Description: CD22 CAR constructs were also tested for the ability to promote secretion of IFN-gamma and IL-2. Briefly, transduced primary T cells from healthy donors expressing the different CD22 CARs were co-cultured with the CD22-positive target cells Raji-Luc and Daudi-Luc as well as the negative control K562-Luc. T cells and target cell were cultured in an effector-to-target cell ratio (E:T) of 10 to 1. Supernatants were harvested after 20-hr co-culture. […] Similar results were observed when Nalm6-Luc, Pfeiffer-Luc, and K562-CD22-Luc, and SEM-Luc cells were tested (data not shown). Minimal IFN-gamma secretion was observed when the K562-Luc negative control cell line was tested (bottom panel).

Row | Molecule | IFN-gamma secretion | relative amount of IFN-gamma
18 | B1 | induced IFN-gamma secretion | 
19 | B13 | induced IFN-gamma secretion | highest amounts

Reference: patent US10253086B2, “CD20 therapies, CD22 therapies, and combination therapies with a CD19 chimeric antigen receptor (CAR)-expressing cell” (Novartis AG, priority 2015, dated 2019)
